Where two headings read alike, the source gives them in different places. Values belong to the substance of their own block, whether it stands above or below them.
Tests used:
[1] = target: membrane-bound single-chain I-A^d-OVA (SCT1) on transfected NSO cells (mouse (I-A^d); chicken (OVA peptide)); assay: flow cytometry, FITC-conjugated AMS 32.1 (1:100) on T2 (SCT1-transfectant)
[2] = target: membrane-bound single-chain I-A^d-OVA (SCT1) on transfected NSO cells (mouse (I-A^d); chicken (OVA peptide)); assay: flow cytometry, FITC-conjugated AMS 32.1 (1:100) on T6 (SCT1-transfectant)
[3] = target: membrane-bound single-chain I-A^d-OVA (SCT1) on transfected NSO cells (mouse (I-A^d); chicken (OVA peptide)); assay: flow cytometry, FITC-conjugated AMS 32.1 (1:100) on T12 (SCT1-transfectant)
[4] = target: soluble single-chain I-A^d-OVA from insect (SF9) cells (SSC1 gene in pMBSC1.2) (mouse (I-A^d); chicken (OVA peptide)); assay: I-A^d sandwich ELISA (capture M5/114, detection biotinylated AMS-32.1), cotransfection supernatant 1:2
[5] = target: soluble single-chain I-A^d-OVA from insect (SF9) cells (SSC1 gene in pMBSC1.2) (mouse (I-A^d); chicken (OVA peptide)); assay: I-A^d sandwich ELISA (capture M5/114, detection biotinylated AMS-32.1), cotransfection supernatant 1:4
[6] = target: soluble single-chain I-A^d-OVA from insect (SF9) cells (SSC1 gene in pMBSC1.2) (mouse (I-A^d); chicken (OVA peptide)); assay: I-A^d sandwich ELISA (capture M5/114, detection biotinylated AMS-32.1), cotransfection supernatant 1:8
[7] = target: soluble single-chain I-A^d-OVA from insect (SF9) cells (SSC1 gene in pMBSC1.2) (mouse (I-A^d); chicken (OVA peptide)); assay: I-A^d sandwich ELISA (capture M5/114, detection biotinylated AMS-32.1), supernatant of virus clone C6
[8] = target: soluble single-chain I-A^d-OVA from insect (SF9) cells (SSC1 gene in pMBSC1.2) (mouse (I-A^d); chicken (OVA peptide)); assay: I-A^d sandwich ELISA (capture M5/114, detection biotinylated AMS-32.1), supernatant of virus clone F8
[9] = target: soluble single-chain I-A^d-OVA from insect (SF9) cells (SSC1 gene in pMBSC1.2) (mouse (I-A^d); chicken (OVA peptide)); assay: I-A^d sandwich ELISA (capture M5/114, detection biotinylated AMS-32.1), cotransfection supernatant undiluted
[10] = target: soluble single-chain I-A^d-OVA with EE antibody tag (SCE1) secreted by transfected NSO cells (mouse (I-A^d); chicken (OVA peptide)); assay: I-A^d sandwich ELISA (capture M5/114, detection biotinylated AMS-32.1), undiluted supernatant of E10 (SCE1 transfectant)
[11] = target: soluble single-chain I-A^d-OVA with EE antibody tag (SCE1) secreted by transfected NSO cells (mouse (I-A^d); chicken (OVA peptide)); assay: I-A^d sandwich ELISA (capture M5/114, detection biotinylated AMS-32.1), undiluted supernatant of E11 (SCE1 transfectant)
[12] = target: Neuron Specific Enolase (NSE) in supernatant of SF9 cells infected with a recombinant Baculovirus; assay: I-A^d sandwich ELISA (capture M5/114, detection biotinylated AMS-32.1), NSE baculovirus supernatant as negative control
[13] = target: soluble single-chain I-A^d-OVA from insect (SF9) cells (SSC1 gene in pMBSC1.2) (mouse (I-A^d); chicken (OVA peptide)); assay: I-A^d sandwich ELISA (capture M5/114, detection biotinylated AMS-32.1), sc I-A^d-OVA from insect cell culture (positive control)
[14] = target: full length I-A^d/OVA 323-339 MHC class II fusion complex (pJRS165.1) expressed on NSO cells (mouse; chicken) (UniProt P04228); assay: flow cytometry, FITC-conjugated anti-IA^k control (1:100) on clone NSO/IA^d/OVA.A4
Sequence of UniProt P04228 (P04228 24-256, chain 1 of 2): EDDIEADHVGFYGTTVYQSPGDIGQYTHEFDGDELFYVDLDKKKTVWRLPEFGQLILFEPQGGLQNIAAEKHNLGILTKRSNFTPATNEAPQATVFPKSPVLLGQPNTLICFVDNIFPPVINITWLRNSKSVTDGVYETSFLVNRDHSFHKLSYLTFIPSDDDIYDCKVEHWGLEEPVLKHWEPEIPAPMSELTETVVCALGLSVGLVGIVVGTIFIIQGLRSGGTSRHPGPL
Sequence of UniProt P04228 (P01921 28-265, chain 2 of 2, further chain): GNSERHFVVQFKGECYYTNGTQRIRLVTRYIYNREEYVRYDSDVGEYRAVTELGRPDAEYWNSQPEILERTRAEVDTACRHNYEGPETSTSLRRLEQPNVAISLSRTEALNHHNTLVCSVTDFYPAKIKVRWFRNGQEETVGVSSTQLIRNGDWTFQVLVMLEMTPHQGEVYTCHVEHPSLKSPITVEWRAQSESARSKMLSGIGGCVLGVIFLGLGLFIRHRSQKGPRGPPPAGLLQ

[15] = target: full length I-A^d/OVA 323-339 MHC class II fusion complex (pJRS165.1) expressed on NSO cells (mouse; chicken) (UniProt P04228); assay: flow cytometry, FITC-conjugated anti-IA^k control (1:100) on clone NSO/IA^d/OVA.B2
[16] = target: full length I-A^d/OVA 323-339 MHC class II fusion complex (pJRS165.1) expressed on NSO cells (mouse; chicken) (UniProt P04228); assay: flow cytometry, FITC-conjugated anti-IA^k control (1:100) on clone NSO/IA^d/OVA.B4
[17] = target: full length I-A^d/OVA 323-339 MHC class II fusion complex (pJRS165.1) expressed on NSO cells (mouse; chicken) (UniProt P04228); assay: flow cytometry, FITC-conjugated anti-IA^k control (1:100) on clone NSO/IA^d/OVA.B5
[18] = target: murine Class II MHC molecule I-A^d on A20.1-11 cells (mouse) (UniProt P04228); assay: flow cytometry, FITC-conjugated anti-IA^k control (1:100) on A20.1 cells (+ control)
[19] = target: T cell receptor of the murine T cell hybridoma DO11.10, specific for OVA 323-339 presented by I-A^d; assay: cell-based or functional assay
[20] = target: T cell receptor of the murine T cell hybridoma DO11.10, specific for OVA 323-339 presented by I-A^d; assay: cell-based or functional assay; remark: listed apart in the source
[21] = target: membrane-bound single-chain I-A^d-OVA (SCT1) on transfected NSO cells (mouse (I-A^d); chicken (OVA peptide)); assay: flow cytometry, FITC-conjugated 10-3.6 control (1:100) on T2 (SCT1-transfectant)
[22] = target: membrane-bound single-chain I-A^d-OVA (SCT1) on transfected NSO cells (mouse (I-A^d); chicken (OVA peptide)); assay: flow cytometry, FITC-conjugated 10-3.6 control (1:100) on T6 (SCT1-transfectant)
[23] = target: membrane-bound single-chain I-A^d-OVA (SCT1) on transfected NSO cells (mouse (I-A^d); chicken (OVA peptide)); assay: flow cytometry, FITC-conjugated 10-3.6 control (1:100) on T12 (SCT1-transfectant)

- peak channel fluorescence [14]: 34 peak channel
- peak channel fluorescence [15]: 14 peak channel
- peak channel fluorescence [16]: 11 peak channel
- peak channel fluorescence [17]: 10 peak channel
- peak channel fluorescence [18]: 5 peak channel
Substance: FITC-conjugated anti-IA^k antibody (Pharmingen), isotype matched irrelevant antibody

- IL-2 ELISA result (Absorbance); A20+OVA 323-339 peptide (positive control) [19]: 1.33 absorbance
- IL-2 ELISA result (Absorbance); A20+OVA 323-339 peptide (positive control) [20]: 1.45 absorbance
Substance: OVA 323-339 peptide presented by I-A^d on A20 cells (from UniProt P04228 24-256; P01921 28-265) (peptide-MHC)

Second part, the substance before the results:

Substance: AMS-32.1 anti-IA^d (Pharmingen part number 06032D) (antibody)
- Mean Fluorescence (mean fluorescence) [1]: 613
- Mean Fluorescence (mean fluorescence) [2]: 418
- Mean Fluorescence (mean fluorescence) [3]: 911
- Absorbance (405 nm) [4]: 0.524 absorbance
- Absorbance (405 nm) [5]: 0.305 absorbance
- Absorbance (405 nm) [6]: 0.165 absorbance
- Absorbance (405 nm) [7]: 1.56 absorbance
- Absorbance (405 nm) [8]: 1.45 absorbance
- Absorbance (405 nm) [9]: 0.857 absorbance
- Absorbance (405 nm) [10]: 0.781 absorbance
- Absorbance (405 nm) [11]: 0.96 absorbance
- Absorbance (405 nm) [12]: 0.098 absorbance
- Absorbance (405 nm) [13]: 2.44 absorbance

Substance: isotype matched FITC-conjugated anti-I-A^k antibody, 10-3.6 (PharMingen)
- Mean Fluorescence (mean fluorescence) [21]: 22
- Mean Fluorescence (mean fluorescence) [22]: 45.1
- Mean Fluorescence (mean fluorescence) [23]: 45.9

Substance: membrane-bound single-chain I-A^d-OVA (SCT1) on transfected NSO cells (peptide-MHC)
- IL-2 ELISA result (Absorbance); antigen presenting cell T2 (SCT1 transfectant) [19]: 0.758 absorbance
- IL-2 ELISA result (Absorbance); antigen presenting cell T6 (SCT1 transfectant) [19]: 0.307 absorbance
- IL-2 ELISA result (Absorbance); antigen presenting cell T12 (SCT1 transfectant) [20]: 1.03 absorbance

Substance: soluble single-chain I-A^d-OVA from insect (SF9) cells (SSC1 gene in pMBSC1.2) (peptide-MHC)
- IL-2 concentration in DO11 super; immobilized sc IA^d-OVA 78 ng/well [19]: 45 U/ml
- IL-2 concentration in DO11 super; immobilized sc IA^d-OVA 156 ng/well [19]: 100 U/ml
- IL-2 concentration in DO11 super; immobilized sc IA^d-OVA 312 ng/well [19]: 109 U/ml
- IL-2 concentration in DO11 super; immobilized sc IA^d-OVA 625 ng/well [19]: 116 U/ml
- IL-2 concentration in DO11 super; immobilized sc IA^d-OVA 1250 ng/well [19]: 126 U/ml
- IL-2 concentration in DO11 super; immobilized sc IA^d-OVA 2500 ng/well [19]: 143 U/ml
- IL-2 concentration in DO11 super; immobilized scIA^d-OVA 39 ng/well (extended dilution) [19]: 0 U/ml
- IL-2 concentration in DO11 super; immobilized scIA^d-OVA 78 ng/well (extended dilution) [19]: 17 U/ml
- IL-2 concentration in DO11 super; immobilized scIA^d-OVA 156 ng/well (extended dilution) [19]: 24 U/ml
- IL-2 concentration in DO11 super; immobilized scIA^d-OVA 312 ng/well (extended dilution) [19]: 35 U/ml
- IL-2 concentration in DO11 super; immobilized scIA^d-OVA 625 ng/well (extended dilution) [19]: 38 U/ml
- IL-4 concentration in DO11 super; immobilized sc IA^d-OVA 78 ng/well [19]: 7 U/ml
- IL-4 concentration in DO11 super; immobilized sc IA^d-OVA 156 ng/well [19]: 10 U/ml
- IL-4 concentration in DO11 super; immobilized sc IA^d-OVA 312 ng/well [19]: 16 U/ml
- IL-4 concentration in DO11 super; immobilized sc IA^d-OVA 625 ng/well [19]: 15 U/ml
- IL-4 concentration in DO11 super; immobilized sc IA^d-OVA 1250 ng/well [19]: 20 U/ml
- IL-4 concentration in DO11 super; immobilized sc IA^d-OVA 2500 ng/well [19]: 23 U/ml
- IL-r [IL-4] concentration in DO11 super; immobilized scIA^d-OVA 39 ng/well (extended dilution) [19]: 0 U/ml
- IL-r [IL-4] concentration in DO11 super; immobilized scIA^d-OVA 78 ng/well (extended dilution) [19]: 0.8 U/ml
- IL-r [IL-4] concentration in DO11 super; immobilized scIA^d-OVA 156 ng/well (extended dilution) [19]: 0.9 U/ml
- IL-r [IL-4] concentration in DO11 super; immobilized scIA^d-OVA 312 ng/well (extended dilution) [19]: 1.5 U/ml
- IL-r [IL-4] concentration in DO11 super; immobilized scIA^d-OVA 625 ng/well (extended dilution) [19]: 2 U/ml
